Data reported in publication PMC10877974.

Legend:
[1] = target: Ad35K++ (recombinant adenovirus serotype 35 fiber knob protein with affinity-enhancing mutations) (adenovirus serotype 35); test: SEC; Superdex 200 Increase 10/300 GL, 1x Tris-buffered saline, 1 mL/min; cGMP grade Ad35K++
[2] = target: Ad35K++ (recombinant adenovirus serotype 35 fiber knob protein with affinity-enhancing mutations) (adenovirus serotype 35); test: SDS-PAGE of unboiled sample; reduced 4-15% gradient gel, Laemmli sample buffer with beta-mercaptoethanol, sample not boiled, Coomassie Blue

## Ad35K++ (recombinant adenovirus serotype 35 fiber knob protein with affinity-enhancing mutations) (domain or fragment)
[1]
  stoichiometry N: 3
[2]
  stoichiometry N: 3
